# In US20260209350A1 (Alector, published 2026):
# Legend:
# [1] = target: T1, mouse TREM2 on cells (mouse, UniProt Q99NH8 19-227); experiment: FACS, mTrem2 cells
# T1 construct: whole, on cells; Used for the recombinant protein on BWZ/BW cells (with mouse DAP12) and for the native protein on mouse macrophages and dendritic cells; the cell type stands under assay; also called mTREM2; mTrem2
# T1 sequence (looked up): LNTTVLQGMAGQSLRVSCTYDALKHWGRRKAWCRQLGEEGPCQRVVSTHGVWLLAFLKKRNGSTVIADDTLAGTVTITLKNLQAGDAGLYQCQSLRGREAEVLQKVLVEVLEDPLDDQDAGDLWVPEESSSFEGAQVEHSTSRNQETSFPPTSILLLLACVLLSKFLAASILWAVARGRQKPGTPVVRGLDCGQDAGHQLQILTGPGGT
# [2] = target: T2, mouse TREM2 Fc fusion protein (mouse, UniProt Q99NH8 19-171); experiment: ForteBio or MSD-SET, avid
# T2 construct: also called mTREM2-Fc; not shown: Fc part not specified
# T2 sequence (looked up): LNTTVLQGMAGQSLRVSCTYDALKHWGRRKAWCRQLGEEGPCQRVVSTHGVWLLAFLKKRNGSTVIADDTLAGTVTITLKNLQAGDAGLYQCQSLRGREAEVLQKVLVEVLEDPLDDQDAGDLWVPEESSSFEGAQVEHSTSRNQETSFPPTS
# [3] = target: T3, human TREM2 Fc fusion protein (human, UniProt Q9NZC2 19-174); experiment: ForteBio or MSD-SET, avid
# T3 construct: also called hTREM2-Fc; not shown: Fc part not specified
# T3 sequence: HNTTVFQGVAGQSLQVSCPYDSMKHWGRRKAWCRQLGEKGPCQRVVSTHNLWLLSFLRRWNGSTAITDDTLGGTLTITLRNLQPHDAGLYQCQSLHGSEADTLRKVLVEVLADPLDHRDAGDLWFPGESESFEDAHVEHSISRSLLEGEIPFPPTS
Binder,MFI [1] [MFI],Kd [2] [nM],Kd [3] [nM],binding result [2]
"Ab25 (antibody, human IgG1, V domains shown, human IgG1) VH: not shown VL: EIVLTQSPGTLSLSPGERATLSCRASQSVSSSYLAWYQQKPGQAPRLLIYGASSRATGIPDRFSGSGSGTDFTLTISRLEPEDFAVYYCQQDDRSPTFGGGTKVEIK",2500,5.98,–,–
"Ab29 (antibody, human IgG1, V domains shown, human IgG1) VH: QVQLVESGGGVVQPGRSLRLSCAASGFTFSSYGMHWVRQAPGKGLEWVAVISYDGSNKYYADSVKGRFTISRDNSKNTLYLQMNSLRAEDTAVYYCARGQYYGGSGWFDPWGQGTLVTVSS VL: EIVLTQSPGTLSLSPGERATLSCRASQSVSSSYLAWYQQKPGQAPRLLIYGASSRATGIPDRFSGSGSGTDFTLTISRLEPEDFAVYYCQQPGAVPTFGGGTKVEIK",4520,3.27,2.36,–
"Ab73 (antibody, human IgG1, V domains shown, human IgG1) VH: EVQLVQSGAEVKKPGESLKISCKGSGYSFTSYWIGWVRQMPGKGLEWMGIIYPGDSDTTYSPSFQGQVTISADKSISTAYLQWSSLKASDTAMYYCARAKMLDDGYAFDIWGQGTMVTVSS VL: EIVMTQSPATLSVSPGERATLSCRASQSVSSNLAWYQQKPGQAPRLLIYGASTRATGIPARFSGSGSGTEFTLTISSLQSEDFAVYYCQQDDNYPYTFGGGTKVEIK",1120,–,4.1,no binding
"Ab27 (antibody, human IgG1, V domains shown, human IgG1) VH: not shown VL: EIVLTQSPATLSLSPGERATLSCRASQSVSSYLAWYQQKPGQAPRLLIYDASNRATGIPARFSGSGSGTDFTLTISSLEPEDFAVYYCQQYNNFPPTFGGGTKVEIK",2160,6.39,1.33,–
"Ab28 (antibody, human IgG1, V domains shown, human IgG1) VH: not shown VL: EIVLTQSPATLSLSPGERATLSCRASQSVSSYLAWYQQKPGQAPRLLIYDASKRATGIPARFSGSGSGTDFTLTISSLEPEDFAVYYCQQRYLRPITFGGGTKVEIK",5250,7.45,0.915,–
"Ab80 (antibody, human IgG1, V domains shown, human IgG1) VH: QVQLVQSGAEVKKPGSSVKVSCKASGGTFSSYAISWVRQAPGQGLEWMGGIIPIFGTANYAQKFQGRVTITADESTSTAYMELSSLRSEDTAVYYCARGGGTFWSGSWALYWGQGTLVTVSS VL: EIVLTQSPATLSLSPGERATLSCRASQSVSSYLAWYQQKPGQAPRLLIYDASNRATGIPARFSGSGSGTDFTLTISSLEPEDFAVYYCQQYVNWPFTFGGGTKVEIK",593,8.85,5.72,–
"Ab61 (antibody, human IgG1, V domains shown, human IgG1) VH: QVQLVQSGAEVKKPGASVKVSCKASGYTFTSYGIHWVRQAPGQGLEWMGWISAYNGNTNYAQKLQGRVTMTTDTSTSTAYMELRSLRSDDTAVYYCARGGVPRVSYFQHWGQGTLVTVSS VL: EIVLTQSPATLSLSPGERATLSCRASQSVSSYLAWYQQKPGQAPRLLIYDSSNRATGIPARFSGSGSGTDFTLTISSLEPEDFAVYYCQQAFNRPPTFGGGTKVEIK",10500,–,4.61,–
"Ab60 (antibody, human IgG1, V domains shown, human IgG1) VH: not shown VL: EIVLTQSPATLSLSPGERATLSCRASQSVSSYLAWYQQKPGQAPRLLIYDASKRATGIPARFSGSGSGTDFTLTISSLEPEDFAVYYCQQRASMPITFGGGTKVEIK",–,–,5.59,–
"Ab41 (antibody, human IgG1, V domains shown, human IgG1) VH: EVQLLESGGGLVQPGGSLRLSCAASGFTFSTYAMSWVRQAPGKGLEWVSAISGSGGSTYYADSVKGRFTISRDNSKNTLYLQMNSLRAEDTAVYYCARAMARKSVAFDIWGQGTMVTVSS VL: EIVLTQSPATLSLSPGERATLSCRASQSVSSYLAWYQQKPGQAPRLLIYDASNRATGIPARFSGSGSGTDFTLTISSLEPEDFTVYYCQQRYALPITFGGGTKVEIK",373,8.64,2.14,–
"Ab81 (antibody, human IgG1, V domains shown, human IgG1) VH: QVQLVQSGAEVKKPGSSVKVSCKASGGTFSSYAISWVRQAPGQGLEWMGGIIPIFGTANYAQKFQGRVTITADESTSTAYMELSSLRSEDTAVYYCARDSGNYDYWSGALRYWGQGTLVTVSS VL: EIVLTQSPATLSLSPGERATLSCRASQSVSSYLAWYQQKPGQAPRLLIYDASNRATGIPARFSGSGSGTDFTLTISSLEPEDFAVYYCQQSSNWPWTFGGGTKVEIK",400,–,10.1,no binding
"Ab75 (antibody, human IgG1, V domains shown, human IgG1) VH: not shown VL: EIVLTQSPATLSLSPGERATLSCRASQSVSSYLAWYQQKPGQAPRLLIYDASNRATGIPARFSGSGSGTDFTLTISSLEPEDFAVYYCQQVSNYPFTFGGGTKVEIK",276,–,5.88,no binding
"Ab74 (antibody, human IgG1, V domains shown, human IgG1) VH: not shown VL: EIVLTQSPATLSLSPGERATLSCRASQSVSSYLAWYQQKPGQAPRLLIYDASNRATGIPARFSGSGSGTDFTLTISSLEPEDFAVYYCQQRSTFPITFGGGTKVEIK",1360,4.91,9.43,–
"Ab79 (antibody, human IgG1, V domains shown, human IgG1) VH: EVQLVESGGGLVQPGGSLRLSCAASGFTFSSYSMNWVRQAPGKGLEWVSYISGSSSTIYYADSVKGRFTISRDNAKNSLYLQMNSLRAEDTAVYYCARGGRRHYGGMDVWGQGTTVTVSS VL: not shown",738,–,10.7,no binding
"Ab24 (antibody, human IgG1, V domains shown, human IgG1) VH: not shown VL: DIQMTQSPSSLSASVGDRVTITCRASQSISSYLNWYQQKPGKAPKLLIYAASSLQSGVPSRFSGSGSGTDFTLTISSLQPEDFATYYCQQAFSPPPWTFGGGTKVEIK",2760,9.32,0.479,–
"Ab85 (antibody, human IgG1, V domains shown, human IgG1) VH: QVQLVESGGGVVQPGRSLRLSCAASGFTFSSYGMHWVRQAPGKGLEWVAVIWYDGSNKYYADSVKGRFTISRDNSKNTLYLQMNSLRAEDTAVYYCAKDLGGYYGGAAYGMDVWGQGTTVTVSS VL: DIQLTQSPSSVSASVGDRVTITCRASQDISSWLAWYQQKPGKAPKLLIYAASSLQSGVPSRFSGSGSGTDFTLTISSLQPEDFATYYCQQEVDYPPLTFGGGTKVEIK",1120,2.19,5.72,–
"Ab37 (antibody, human IgG1, V domains shown, human IgG1) VH: not shown VL: EIVLTQSPATLSLSPGERATLSCRASQSVSSYLAWYQQKPGQAPRLLIYDASNRATGIPARFSGSGSGTDFTLTISSLEPEDFAVYYCQQRAFLFTFGGGTKVEIK",1430,–,1.58,no binding
"Ab76 (antibody, human IgG1, V domains shown, human IgG1) VH: EVQLVESGGGLVKPGGSLRLSCAASGFTFSSYSMNWVRQAPGKGLEWVSSISSSSSYIYYADSVKGRFTISRDNAKNSLYLQMNSLRAEDTAVYYCARGGGRRGDNNWFDPWGQGTLVTVSS VL: not shown",–,–,4.84,–
"Ab77 (antibody, human IgG1, V domains shown, human IgG1) VH: QVQLVESGGGVVQPGRSLRLSCAASGFTFSSYGMHWVRQAPGKGLEWVAVISYDGSNKYYADSVKGRFTISRDNSKNTLYLQMNSLRAEDTAVYYCARGPPHEMDYWGQGTLVTVSS VL: not shown",1650,–,–,no binding
"Ab86 (antibody, human IgG1, V domains shown, human IgG1) VH: QVQLVESGGGVVQPGRSLRLSCAASGFTFSSYGMHWVRQAPGKGLEWVAVISYDGSNKYYADSVKGRFTISRDNSKNTLYLQMNSLRAEDTAVYYCAKDGVYYGLGNWFDPWGQGTLVTVSS VL: not shown",355,6.55,3.89,–
"Ab30 (antibody, human IgG1, V domains shown, human IgG1) VH: not shown VL: DIQMTQSPSSLSASVGDRVTITCRASQSISSYLNWYQQKPGKAPKLLIYGASSLQSGVPSRFSGSGSGTDFTLTISSLQPEDFATYYCQQVYITPITFGGGTKVEIK",–,–,1.32,no binding
"Ab83 (antibody, human IgG1, V domains shown, human IgG1) VH: QVQLQQWGAGLLKPSETLSLTCAVYGGSFSGYYWSWIRQPPGKGLEWIGEIDHSGSTKYNPSLKSRVTISVDTSKNQFSLKLSSVTAADTAVYYCARVGVVVGRPGYSAFDIWGQGTMVTVSS VL: DIQMTQSPSSVSASVGDRVTITCRASQGISSWLAWYQQKPGKAPKLLIYAASSLQSGVPSRFSGSGSGTDFTLTISSLQPEDFATYYCQQRNSLPLTFGGGTKVEIK",–,–,8.21,–
"Ab82 (antibody, human IgG1, V domains shown, human IgG1) VH: QVQLQESGPGLVKPSQTLSLTCTVSGGSISSGGYYWSWIRQHPGKGLEWIGYIYYSGSTVYNPSLKSRVTISVDTSKNQFSLKLSSVTAADTAVYYCARVSSSWYKAWGQGTMVTVSS VL: DIQMTQSPSSVSASVGDRVTITCRASQGISSWLAWYQQKPGKAPKLLIYAASSLQSGVPSRFSGSGSGTDFTLTISSLQPEDFATYYCQQASTFPITFGGGTKVEIK",712,5.82,11,–
